{"source": "paper PMC4654411", "target": "Full-length HA-tagged PTPN12 (human) (UniProt Q05209)", "sequence (Q05209 whole entry)": "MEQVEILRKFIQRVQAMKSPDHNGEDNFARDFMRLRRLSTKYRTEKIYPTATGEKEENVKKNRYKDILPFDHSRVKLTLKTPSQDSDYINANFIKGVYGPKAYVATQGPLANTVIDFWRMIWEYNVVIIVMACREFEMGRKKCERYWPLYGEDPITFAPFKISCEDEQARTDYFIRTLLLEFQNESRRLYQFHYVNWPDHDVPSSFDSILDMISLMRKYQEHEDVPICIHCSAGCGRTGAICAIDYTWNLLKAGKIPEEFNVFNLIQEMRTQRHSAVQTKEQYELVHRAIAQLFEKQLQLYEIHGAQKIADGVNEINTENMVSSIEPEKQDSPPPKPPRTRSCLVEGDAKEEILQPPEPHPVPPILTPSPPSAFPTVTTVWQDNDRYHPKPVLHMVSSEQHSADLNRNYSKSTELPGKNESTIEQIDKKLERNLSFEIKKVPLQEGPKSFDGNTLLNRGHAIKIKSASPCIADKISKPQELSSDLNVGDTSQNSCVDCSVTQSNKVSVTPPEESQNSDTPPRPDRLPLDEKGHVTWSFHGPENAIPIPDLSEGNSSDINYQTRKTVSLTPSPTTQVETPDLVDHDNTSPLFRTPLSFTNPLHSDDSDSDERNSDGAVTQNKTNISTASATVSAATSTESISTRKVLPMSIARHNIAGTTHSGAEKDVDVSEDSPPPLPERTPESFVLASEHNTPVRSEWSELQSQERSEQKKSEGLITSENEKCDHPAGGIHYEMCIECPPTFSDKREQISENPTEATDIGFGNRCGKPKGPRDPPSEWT", "experiment": "co-IP; Hek293 cells co-transfected with HA-PTPN12 and GFP-tagged FlnAs; 500 µg lysate in NETF buffer, 6 µg anti-HA 2 h at 4 °C, protein A beads; immunoblot"}
{"substance": "GFP-tagged-FlnA-P637Q, P21333 1-2647", "values": [{"measurement": "reduction of the FlnA co-immunoprecipitated with respect to FlnA-WT", "result": "> 60", "unit": "%"}]}
{"substance": "GFP-tagged-FlnA-G288R, P21333 1-2647", "values": [{"measurement": "reduction of the FlnA co-immunoprecipitated with respect to FlnA-WT", "result": "> 60", "unit": "%"}]}
